Test results as given in patent US20170306033A1 (Amgen, published 2017).
Positions count from the first letter of the chain named.

T1: human PAC1 receptor (human, UniProt P41586 21-468)
T1 sequence: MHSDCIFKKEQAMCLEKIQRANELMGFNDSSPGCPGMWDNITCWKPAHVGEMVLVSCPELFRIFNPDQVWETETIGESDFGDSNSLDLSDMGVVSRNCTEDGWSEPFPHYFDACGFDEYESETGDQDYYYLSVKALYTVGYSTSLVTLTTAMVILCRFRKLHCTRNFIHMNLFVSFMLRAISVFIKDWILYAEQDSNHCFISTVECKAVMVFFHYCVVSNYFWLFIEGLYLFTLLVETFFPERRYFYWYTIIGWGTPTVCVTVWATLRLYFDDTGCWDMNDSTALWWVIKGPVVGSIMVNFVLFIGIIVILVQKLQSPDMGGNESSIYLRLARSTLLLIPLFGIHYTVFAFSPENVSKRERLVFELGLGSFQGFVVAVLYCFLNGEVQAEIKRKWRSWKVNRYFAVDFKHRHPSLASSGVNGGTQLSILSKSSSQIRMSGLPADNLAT

B1: iPS:327721 (bispecific antibody, human IgG1, kappa, lambda, N297G)
light 1: EIVLTQSPATLSLSPGERATLSCRASQSVGRSLHWYQQKPGQAPRLLIKYASQSLSGIPARFSGSGSGTDFTLTISSLEPEDFAVYYCHQSSRLPFTFGPGTKVDIKRTVAAPSVFIFPPSDEQLKSGTASVVCLLNNFYPREAKVQWKVDNALQSGNSQESVTEQDSKDSTYSLESTLTLSKADYEKHKVYACEVTHQGLSSPVTKSFNRGEC
heavy 1: not shown
light 2: QSVLTQPPSVSAAPGQKVTISCSGSSSNIGNNYVSWYQQLPGTAPKLLIYDNNKRPSGIPDRFSGSKSGTSATLAITGLQTGDEADYYCGTWDSRLSAVVFGGGTKLTVLGQPKANPTVTLFPPSSEELQANKATLVCLISDFYPGAVTVAWKADGSPVKAGVETTKPSKQSNNKYAAKSYLSLTPEQWKSHRSYSCQVTHEGSTVEKTVAPTECS
heavy 2: QVQLVESGGGVVQPGRSLRLSCAASGFTFSSFGMHWVRQAPGKGLEWVAVISFDGSIKYSVDSVKGRFTISRDNSKNTLFLQMNSLRAEDTAVYYCARDRLNYYDSSGYYHYKYYGMAVWGQGTTVTVSSASTKGPSVFPLAPSSKSTSGGTAALGCLVKDYFPEPVTVSWNSGALTSGVHTFPAVLQSSGLYSLESVVTVPSSSLGTQTYICNVNHKPSNTKVDKKVEPKSCDKTHTCPPCPAPELLGGPSVFLFPPKPKDTLMISRTPEVTCVVVDVSHEDPEVKFNWYVDGVEVHNAKTKPCEEQYGSTYRCVSVLTVLHQDWLNGKEYKCKVSNKALPAPIEKTISKAKGQPREPQVYTLPPSRKEMTKNQVSLTCLVKGFYPSDIAVEWESNGQPENNYKTTPPVLKSDGSFFLYSKLTVDKSRWQQGNVFSCSVMHEALHNHYTQKSLSLSPGK
B2: iPS:327732 (bispecific antibody, human IgG1, kappa, lambda, N297G)
light 1: not shown
heavy 1: not shown
light 2: B1 light 2 with A75G
heavy 2: B1 heavy 2 with D105E
B3: iPS:327727 (bispecific antibody, human IgG1, kappa, lambda, N297G)
light 1: not shown
heavy 1: not shown
light 2: B1 light 2
heavy 2: B1 heavy 2 with E370K
B4: iPS:327724 (bispecific antibody, human IgG1, kappa, lambda, N297G)
light 1: not shown
heavy 1: not shown
light 2: B1 light 2 with G103K
heavy 2: B1 heavy 2 with G44E
B5: iPS:327735 (bispecific antibody, human IgG1, kappa, lambda, N297G)
light 1: DIQMTQSPSSLSASVGDRITITCRASQSISRYLNWYQQKPGKAPKLLIYAASSLQSGIPSRFSGSGSGTDFTLTINSLQPEDFATYFCQQSYSPPFTFGEGTKVDIKRTVAAPSVFIFPPSDEQLKSGTASVVCLLNNFYPREAKVQWKVDNALQSGNSQESVTEQDSKDSTYSLESTLTLSKADYEKHKVYACEVTHQGLSSPVTKSFNRGEC
heavy 1: not shown
light 2: B1 light 2 with A75G, G103K
heavy 2: B1 heavy 2 with G44E, D105E
B6: iPS:327734 (bispecific antibody, human IgG1, kappa, lambda, N297G)
light 1: B1 light 1
heavy 1: not shown
light 2: B1 light 2 with A75G
heavy 2: B1 heavy 2 with D105E
B7: iPS:327736 (bispecific antibody, human IgG1, kappa, lambda, N297G)
light 1: not shown
heavy 1: not shown
light 2: B1 light 2 with A75G, G103K
heavy 2: B1 heavy 2 with G44E, D105E
B8: iPS:327733 (bispecific antibody, human IgG1, kappa, lambda, N297G)
light 1: DIQLTQSPSFLSASVGDRVTITCRASQSIGRSLHWYQQKPGKAPKLLIKYASQSLSGVPSRFSGSGSGTEFTLTISSLQPEDFATYYCHQSSRLPFTFGPGTKVDIKRTVAAPSVFIFPPSDEQLKSGTASVVCLLNNFYPREAKVQWKVDNALQSGNSQESVTEQDSKDSTYSLESTLTLSKADYEKHKVYACEVTHQGLSSPVTKSFNRGEC
heavy 1: not shown
light 2: B1 light 2 with A75G
heavy 2: B1 heavy 2 with D105E
B9: iPS:327726 (bispecific antibody, human IgG1, kappa, lambda, N297G)
light 1: B1 light 1 with P100E
heavy 1: not shown
light 2: B1 light 2 with G103K
heavy 2: B1 heavy 2 with G44E
B10: iPS:327722 (bispecific antibody, human IgG1, kappa, lambda, N297G)
light 1: B5 light 1
heavy 1: not shown
light 2: B1 light 2 with G103K
heavy 2: B1 heavy 2 with G44E
B11: iPS:327725 (bispecific antibody, human IgG1, kappa, lambda, N297G)
light 1: B8 light 1 with P100E
heavy 1: not shown
light 2: B1 light 2 with G103K
heavy 2: B1 heavy 2 with G44E
B12: iPS:326663 (bispecific antibody, human IgG2, kappa)
light 1: B8 light 1
heavy 1: QVQLVESGAEVVKPGASVKVSCKASGFTFSRFAMHWVRQAPGQGLEWMGVISYDGGNKYYAESVKGRVTMTRDTSTSTLYMELSSLRSEDTAVYYCARGYDVLTGYPDYWGQGTLVTVSSASTKGPSVFPLAPCSRSTSESTAALGCLVKDYFPEPVTVSWNSGALTSGVHTFPAVLQSSGLYSLKSVVTVPSSNFGTQTYTCNVDHKPSNTKVDKTVERKCCVECPPCPAPPVAGPSVFLFPPKPKDTLMISRTPEVTCVVVDVSHEDPEVQFNWYVDGVEVHNAKTKPREEQFNSTFRVVSVLTVVHQDWLNGKEYKCKVSNKGLPAPIEKTISKTKGQPREPQVYTLPPSREEMTKNQVSLTCLVDGFYPSDIAVEWESNGQPENNYDTTPPMLDSDGSFFLYSDLTVDKSRWQQGNVFSCSVMHEALHNHYTQKSLSLSPGK
light 2: EIVLTQSPGTLSLSPGERATLSCRASQSVSSGYLTWYQQKPGQAPRLLIYGASSRATGIPDRFSGSGSGTDFTLTISRLEPEDFAVYYCQQYGNSLSRFGQGTKLEIKRTVAAPSVFIFPPSDEQLKSGTASVVCLLNNFYPREAKVQWKVDNALQSGNSQESVTEQDSKDSTYSLKSTLTLSKADYEKHKVYACEVTHQGLSSPVTKSFNRGEC
heavy 2: QVQLVESGGGVVQPGRSLRLSCAASGFTFSSYGMHWVRQAPGKGLEWVAVIWYDGSNKYYADSVKGRFIISRDKSKNTLYLQMNSLRAEDTAVYYCARAGGIAAAGLYYYYGMDVWGQGTTVTVSSASTKGPSVFPLAPCSRSTSESTAALGCLVKDYFPEPVTVSWNSGALTSGVHTFPAVLQSSGLYSLESVVTVPSSNFGTQTYTCNVDHKPSNTKVDKTVERKCCVECPPCPAPPVAGPSVFLFPPKPKDTLMISRTPEVTCVVVDVSHEDPEVQFNWYVDGVEVHNAKTKPREEQFNSTFRVVSVLTVVHQDWLNGKEYKCKVSNKGLPAPIEKTISKTKGQPREPQVYTLPPSRKKMTKNQVSLTCLVKGFYPSDIAVEWESNGQPENNYKTTPPMLKSDGSFFLYSKLTVDKSRWQQGNVFSCSVMHEALHNHYTQKSLSLSPGK

Molecular target: human CGRP receptor (human, UniProt Q16602 23-461; O60894 27-148)
Sequence (Q16602 23-461 limits assumed, chain 1 of 2): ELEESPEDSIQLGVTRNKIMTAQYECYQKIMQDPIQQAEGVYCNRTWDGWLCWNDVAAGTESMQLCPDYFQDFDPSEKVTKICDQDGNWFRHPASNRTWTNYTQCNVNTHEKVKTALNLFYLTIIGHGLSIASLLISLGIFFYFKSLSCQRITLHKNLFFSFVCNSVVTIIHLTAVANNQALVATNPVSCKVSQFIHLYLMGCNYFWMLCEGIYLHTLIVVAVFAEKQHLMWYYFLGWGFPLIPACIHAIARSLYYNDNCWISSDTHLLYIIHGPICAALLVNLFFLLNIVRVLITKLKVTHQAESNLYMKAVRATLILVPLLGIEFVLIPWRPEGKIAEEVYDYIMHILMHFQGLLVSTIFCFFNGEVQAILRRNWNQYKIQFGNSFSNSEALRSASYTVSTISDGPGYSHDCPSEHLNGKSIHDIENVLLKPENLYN
Sequence (O60894 27-148 limits assumed, chain 2 of 2): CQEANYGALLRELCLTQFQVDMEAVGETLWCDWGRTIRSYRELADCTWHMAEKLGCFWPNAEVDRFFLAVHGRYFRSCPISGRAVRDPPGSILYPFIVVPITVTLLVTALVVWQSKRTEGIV
Experiment: cell-based or functional assay

Row | % inhibition of human CGRPR [%] | Binder
1 | 81 | B1
2 | 69 | B2
3 | 93 | B3
4 | 80 | B4
5 | 81 | B5
6 | 82 | B6
7 | 88 | B7
8 | 84 | B8
9 | 91 | B9
10 | 82 | B10
11 | 86 | B11
12 | 64 | B12

Molecular target: T1, human PAC1 receptor
Experiment: cell-based or functional assay

Row | % inhibition of human PAC1 [%] | Binder
13 | 99 | B1
14 | 56 | B2
15 | 93 | B3
16 | 33 | B4
17 | 68 | B5
18 | 99 | B6
19 | 20 | B7
20 | 66 | B8
21 | 77 | B9
22 | 38 | B10
23 | 39 | B11
24 | 62 | B12
